Test results: the Human Domainome abundance scans (Beltran et al. 2025)
± gives the uncertainty stated by the source.

B1: Transcriptional repressor p66-beta, residues 415 to 455; numbered along this chain, Q8WXI9 (parent)
chain: VEPFVCAQCRTDFTPHWKQEKNGKILCEQCMTSNQKKALKA

Variants of: B1
Assay: abundance fitness (aPCA) (normalised: wild type 0, dead -1); higher = more abundant; growth selection in yeast, the domain comes from the species named
Conditions: Homo sapiens

Variant | abundance fitness
F4N | 0.34 ± 0.12
F4D | 0.282 ± 0.077
F4H | 0.114 ± 0.32
F4Y | -0.14 ± 0.33
F4P | -0.208 ± 0.18
F4L | 0.036 ± 0.077
W17I | 0.013 ± 0.24
W17Q | 0.523 ± 0.13
W17A | -0.009 ± 0.07
W17S | 0.127 ± 0.08
W17C | 0.149 ± 0.093
W17K | 0.387 ± 0.11
W17V | 0.082 ± 0.069
W17Y | 0.557 ± 0.4
W17P | -0.135 ± 0.17
W17T | 0.564 ± 0.2
W17L | 0.051 ± 0.088
W17E | 0.196 ± 0.11
W17H | 0.009 ± 0.14
W17R | 0.092 ± 0.061
W17D | 0.285 ± 0.11
K21W | 0.037 ± 0.077
K21V | -0.026 ± 0.093
K21S | -0.104 ± 0.084

Variant | abundance fitness
K21M | -0.054 ± 0.17
K21G | 0.145 ± 0.053
K21R | 0.129 ± 0.057
K21Q | 0.235 ± 0.1
K21P | 0.264 ± 0.12
K21A | 0.008 ± 0.068
Q19V | 0.159 ± 0.061
Q19M | 0.026 ± 0.097
Q19C | 0.103 ± 0.16
Q19T | -0.346 ± 0.32
Q19G | 0.323 ± 0.052
Q19S | -0.044 ± 0.12
Q19D | 0.212 ± 0.15
Q19E | 0.163 ± 0.11
Q19A | 0.106 ± 0.066
Q19R | -0.029 ± 0.069
Q19P | 0.109 ± 0.13
Q19N | 0.136 ± 0.14
Q19K | 0.143 ± 0.089
F13W | -0.213 ± 0.089
F13E | -0.007 ± 0.074
F13K | -0.629 ± 0.44
F13Q | -0.593 ± 0.28
F13D | -0.21 ± 0.22

Variant | abundance fitness
F13H | -0.244 ± 0.3
F13R | -0.144 ± 0.065
F13V | 0.337 ± 0.053
F13A | 0.139 ± 0.067
F13S | -0.164 ± 0.079
F13T | 0.039 ± 0.094
F13G | -0.116 ± 0.059
F13M | 0.192 ± 0.12
F13L | -0.179 ± 0.072
T11H | 0.346 ± 0.22
T11R | 0.1 ± 0.056
T11V | 0.587 ± 0.071
T11S | 0.058 ± 0.064
T11C | 0.183 ± 0.11
T11L | 0.156 ± 0.086
T11M | 0.436 ± 0.08
T11P | -0.025 ± 0.076
T11K | 0.427 ± 0.099
T11F | -0.306 ± 0.23
T11Q | 0.312 ± 0.069
T11G | 0.354 ± 0.05
T11W | -0.133 ± 0.072
T11D | 0.066 ± 0.44
T11E | 0.312 ± 0.064

Variant | abundance fitness
E20V | -0.013 ± 0.092
E20L | -0.254 ± 0.1
E20P | -0.631 ± 0.23
E20K | -0.468 ± 0.37
E20W | -0.362 ± 0.16
E20A | -0.498 ± 0.099
E20Q | -0.303 ± 0.13
E20T | -0.315 ± 0.2
E20C | 0.158 ± 0.13
E20F | -0.696 ± 0.29
E20G | -0.034 ± 0.063
E20R | -0.314 ± 0.072
E20I | 0.391 ± 0.34
E20D | -0.645 ± 0.41
E20S | -0.115 ± 0.11
P15W | -0.401 ± 0.087
P15R | -0.15 ± 0.062
P15D | 0.212 ± 0.14
P15T | 0.078 ± 0.085
P15L | -0.018 ± 0.1
P15F | -0.351 ± 0.18
P15A | -0.011 ± 0.075
P15V | 0.015 ± 0.063
P15C | 0.051 ± 0.08

Variant | abundance fitness
P15G | -0.048 ± 0.06
P15M | -0.111 ± 0.1
P15Q | -0.137 ± 0.23
P15I | -0.154 ± 0.19
P15E | -0.102 ± 0.076
E2G | -0.299 ± 0.092
E2H | 0.197 ± 0.14
E2K | -0.324 ± 0.11
E2T | 0.056 ± 0.1
E2M | -0.019 ± 0.1
E2Q | -0.297 ± 0.17
E2N | 0.866 ± 0.19
E2P | -0.29 ± 0.16
E2S | -0.074 ± 0.086
E2V | -0.227 ± 0.072
E2R | -0.55 ± 0.15
E2F | -0.1 ± 0.28
E2Y | -0.114 ± 0.11
E2D | 1.14 ± 0.48
E2A | -0.352 ± 0.088
E2C | -0.112 ± 0.16
E2I | -0.342 ± 0.37
E2L | -0.469 ± 0.16
E2W | -0.651 ± 0.16

Variant | abundance fitness
N22R | 0.208 ± 0.065
N22S | 0.382 ± 0.08
N22D | 0.011 ± 0.14
N22T | 0.079 ± 0.2
N22F | -0.377 ± 0.18
N22W | 0.137 ± 0.1
N22V | 0.193 ± 0.079
N22K | 0.066 ± 0.13
N22Q | 0.106 ± 0.12
N22L | -0.241 ± 0.12
N22G | 0.439 ± 0.06
N22A | 0.05 ± 0.069
N22P | 0.027 ± 0.16
N22C | 0.289 ± 0.12
N22Y | 0.19 ± 0.3
D12P | -0.118 ± 0.086
D12E | 0.032 ± 0.081
D12L | -0.198 ± 0.1
D12T | -0.016 ± 0.092
D12N | 0.187 ± 0.15
D12C | 0.141 ± 0.14
D12K | -0.274 ± 0.2
D12S | 0.117 ± 0.086
D12Q | -0.208 ± 0.1

Variant | abundance fitness
D12Y | -0.025 ± 0.13
D12F | -0.149 ± 0.2
D12V | 0.312 ± 0.059
D12A | 0.064 ± 0.087
D12H | 0.081 ± 0.13
H16K | -0.28 ± 0.18
H16G | -0.022 ± 0.059
H16M | -0.1 ± 0.1
H16Y | -0.004 ± 0.24
H16E | -0.042 ± 0.11
H16L | -0.272 ± 0.092
H16F | -0.005 ± 0.18
H16N | -0.319 ± 0.2
H16P | -0.23 ± 0.14
H16S | -0.084 ± 0.074
H16I | -0.073 ± 0.2
H16A | -0.077 ± 0.074
H16D | 0.015 ± 0.099
H16W | 0.017 ± 0.074
H16Q | -0.14 ± 0.11
H16T | 0.09 ± 0.089
H16R | -0.05 ± 0.066
H16C | 0.072 ± 0.15
